Data: patent US20150299277A1 (published 2015)
Blank lines part the entries; values can stand above or below the binder they belong to.

Experiments:
[1] = target: T1, recombinant human histone H3 (UniProt P68431 2-136); experiment: SPR; EDTA/EGTA
[2] = target: T1, recombinant human histone H3; experiment: SPR; Ca2+
[3] = target: T2, recombinant human histone H4 (UniProt P62805 2-103); experiment: SPR; Ca2+
[4] = target: recombinant human histone H2B (human); experiment: SPR; Ca2+
[5] = target: T2, recombinant human histone H4; experiment: SPR; EDTA/EGTA

Kd [1]: 1.95 nM
Kd [2]: 0.354 nM
Kd [3]: 1.21 nM
Kd [4]: 10.9 nM
B1: Escherichia coli-expressed N-terminal domain human PTX3 wherein the 47th, 49th, 103rd cysteine residues were replaced with serine residue (other)
chain: ENLYFQGENSDDYDLMYVNLDNEIDNGLHPTEDPTPSDSGQEHSEWDKLFIMLENSQMRERMLLQATDDVLRGELQRLREELGRLAESLARPSAPGAPAEARLTSALDELLQATRDAGRRLARMEGAEAQRPEEAGRALAAVLEELRQTRADLHAVQGWAARSWLPAG

Kd [1]: 4.77 nM
Kd [5]: 322 nM
Kd [2]: 5.64 nM
Kd [3]: 1.04 nM
B2: Myc- and His-tagged C-terminal domain human PTX3 (animal cell expressed) (other)
chain: CETAILFPMRSKKIFGSVHPVRPMRLESFSACIWVKATDVLNKTILFSYGTKRNPYEIQLYLSYQSIVFVVGGEENKLVAEAMVSLGRWTHLCGTWNSEEGLTSLWVNGELAATTVEMATGHIVPEGGILQIGQEKNGCCVGGGFDETLAFSGRLTGFNIWDSVLSNEEIRETGGAESCHIRGNIVGWGVTEIQPHGGAQYVS
